Patent publication US20210270842A1 (DYAX, published 2021)

Assays:
[1] = target: T1, cleaved high molecular weight kininogen (HMWK) (human, UniProt P01042 19-380; P01042 390-644); test: sandwich ELISA with coated Fab; value = C, midpoint of the printed 4-P fit; 2-chain HMWK spiked into SBT assay buffer
T1 construct: also called cleaved HMWK; 2-chain HMWK
T1 sequence 1: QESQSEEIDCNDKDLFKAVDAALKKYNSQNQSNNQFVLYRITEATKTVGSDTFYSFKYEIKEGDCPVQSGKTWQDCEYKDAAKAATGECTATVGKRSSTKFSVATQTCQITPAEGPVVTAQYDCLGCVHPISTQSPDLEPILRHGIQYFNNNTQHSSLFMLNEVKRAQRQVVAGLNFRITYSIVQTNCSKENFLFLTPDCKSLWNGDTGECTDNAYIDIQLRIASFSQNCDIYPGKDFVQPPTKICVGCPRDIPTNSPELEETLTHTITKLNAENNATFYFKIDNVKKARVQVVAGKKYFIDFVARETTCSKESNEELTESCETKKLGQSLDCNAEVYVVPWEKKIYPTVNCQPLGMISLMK
T1 sequence 2: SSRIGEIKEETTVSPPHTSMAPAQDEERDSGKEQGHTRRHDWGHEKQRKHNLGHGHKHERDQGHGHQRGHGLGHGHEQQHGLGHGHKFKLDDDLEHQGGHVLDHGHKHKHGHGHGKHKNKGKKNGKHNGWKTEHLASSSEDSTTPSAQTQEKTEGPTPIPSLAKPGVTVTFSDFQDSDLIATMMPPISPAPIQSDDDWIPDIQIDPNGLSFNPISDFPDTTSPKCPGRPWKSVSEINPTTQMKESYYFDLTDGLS
Excerpt: (§1) Purified cleaved HMWK was spiked into SBT assay buffer (open circles), SBT assay buffer and analyzed in the presence of 10% plasma (squares), or HMWK-deficient plasma and analyzed in the presence of 10% plasma (triangles). Purified cleaved HMWK was also spiked into assay buffer and analyzed in the presence of 2.5% plasma (diamonds) or HMWK deficient plasma and analyzed in the presence of 2.5% plasma (closed circles). The y-axis presents the ELISA signal in absorbance units, and the x-axis presents the concentration of kininogen in μg/mL.
(§2) The following day, the plate was washed and then blocked with 2% BSA (Protease/IgG free) in PBS buffer. Following a wash, samples containing cleaved HMWK in 0.1% BSA buffer in PBS with 0.05% Tween-20 (2-Chain HMWK assay buffer). Purified protein standards (e.g., 2-chain HMWK, intact HMWK or LMWK) were spiked into HMWK-deficient plasma and diluted 1:320 in 2-chain HMWK assay buffer. Following plate washing with PBST, a mixture of 2 mouse monoclonal antibodies (11H05 and 13B12) at 1 μg/mL in 2-chain HMWK assay buffer were added for 1 hour at room temperature. […] Signal was detected by the addition of 3,3′,5,5′-tetramethylbenzidine (TMB), an HRP substrate. […] Hydrolysis of a TMB substrate was detected using a microplate reader at 450 nm-630 nm (FIG. 3). […] Using these immunoassay conditions, specifically binding to cleaved HMWK was detected.

[2] = target: T1, cleaved high molecular weight kininogen …; test: ELISA on coated M004-B04, 2-chain HMWK (in deficient plasma, diluted) titrated, no peptide (control); value = C, midpoint of the printed 4-P fit
Method: (§3) Following plate washing with PBST, a mixture of 2 mouse monoclonal antibodies (11H05 and 13B12) at 1 μg/mL in 2-chain HMWK assay buffer were added for 1 hour at room temperature. Unbound detection antibodies were washed and a 1:2000 dilution of goat anti-mouse secondary antibody conjugated to horseradish peroxidase (HRP) was added. The assay containing the secondary antibody was incubated for 1 hour at room temperature, and unbound secondary antibody was removed by washing with 2-chain HMWK assay buffer. Signal was detected by the addition of 3,3′,5,5′-tetramethylbenzidine (TMB), an HRP substrate. The reaction was stopped with phosphoric acid. Hydrolysis of a TMB substrate was detected using a microplate reader at 450 nm-630 nm (FIG. 3). […] Using these immunoassay conditions, specifically binding to cleaved HMWK was detected.
(§4) To perform the assay, the kininogen peptides were diluted to 250 μg/mL and allowed to preincubate on assay plate. Then, purified 2-chain HMWK in deficient human plasma was diluted 160 and then added to plate.

[3] = target: T1, cleaved high molecular weight kininogen …; test: sandwich ELISA with coated Fab; value = C, midpoint of the printed 4-P fit; 2-chain HMWK spiked into HMWK-deficient plasma, analysed in 10% plasma
Excerpt: as §1, §2

[4] = target: T1, cleaved high molecular weight kininogen …; test: ELISA on coated M004-B04, 2-chain HMWK titrated after preincubation of the plate with GCP28 peptide at 250 µg/mL; value = C of the printed 4-P fit; triangles, curve on the control's (the callout box on the graph names this curve HKH20: see recheck)
Method: as §3, §4

- EC50 [1]: 226 µg/mL
- EC50 [2]: 0.0123 µg/mL
- EC50 [3]: 165 µg/mL
- EC50 [4]: 0.00941 µg/mL
B1: 559B-M0004-B04 (Fab, V domains shown)
VH: EVQLLESGGGLVQPGGSLRLSCAASGFTFSFYVMVWVRQAPGKGLEWVSGISPSGGNTAYADSVKGRFTISRDNSKNTLYLQMNSLRAEDTAVYYCARKLFYYDDTKGYFDFWGQGTLVTVSS
VL: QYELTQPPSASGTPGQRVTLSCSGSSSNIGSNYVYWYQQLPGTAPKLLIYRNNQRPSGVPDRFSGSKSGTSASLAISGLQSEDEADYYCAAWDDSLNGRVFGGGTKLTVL
notes: also called M004-B04
